Data on 1 substance can be found in article PMC10402242.

This assay concerns the target nuclear transport factor 2 (NUTF2) (human (endogenous in MCF-7)) (UniProt P61970). The assay is described as follows: native MS; native top-down proteomics: whole cell lysates of MCF-7 and MCF-7-EGFR (EGFR-overexpressing) cells fractionated by native SEC, concentrated with molecular weight cutoff filters, direct ESI infusion FAIMS-MSn with HCD, Orbitrap detection; endogenous assemblies.

nuclear transport factor 2 (NUTF2), sequence (P61970 whole entry): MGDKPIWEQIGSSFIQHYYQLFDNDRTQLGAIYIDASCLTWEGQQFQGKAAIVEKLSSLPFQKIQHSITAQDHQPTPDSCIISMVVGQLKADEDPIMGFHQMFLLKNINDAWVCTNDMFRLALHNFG

For orientation: stoichiometry N means a count of units in the complex or per binding partner. For “nuclear transport factor 2 (NUTF2) (from UniProt P61970 1-127) (natural protein; monomeric proteoforms include acetylated, methylated and dimethylated forms (sites K4, K55, K63); monomeric proteoforms include acetylated, methylated and dimethylated forms (sites K4, K55, K63); other documents disagree on this pair)”, the stoichiometry N was 2.
